Molecular target: the molecule itself
Assay: cross-linking

B1: mouse Kcc1 K-Cl cotransporter (natural protein, UniProt Q9JIS8 1-1085, looked up)
chain: MPHFTVVPVDGPRRGDYDNLEGLSWVDYGERAEREDSDGQGNHRENSPFLCPLDASRGNDYYDRNLALFEEELDIRPKVSSLLGKLVSYTNLTQGAKEHEEAESGEGGRRRAAKAPSMGTLMGVYLPCLQNIFGVILFLRLTWMVGTAGVLQALLIVLICCCCTLLTAISMSAIATNGVVPAGGSYFMISRSLGPEFGGAVGLCFYLGTTFAAAMYILGAIEILLTYIAPPAAIFYPSGTHDMSSATLNNMRVYGTIFLTLMTLVVFVGVKYVNKFASLFLACVIISILSIYAGGIKSIFDPPVFPVCMLGNRTLSRDQFDICAKTVVVDNETVATRLWTFFCHSPNLTADSCDPYFLLNNVTEIPGIPGAAAGVLQENLWSAYLEKGEVVEKHGLPSTDTLGLKESLSLYVVADIATSFTVLVGIFFPSVTGIMAGSNRSGDLRDAQKSIPVGTILAIVTTSLVYFSSVILFGACIEGVVLRDKYGDGVSRNLVVGTLAWPSPWVIVVGSFFSTCGAGLQSLTGAPRLLQAIAKDNIIPFLRVFGHGKANGEPTWALLLTALIAELGILIASLDMVAPILSMFFLMCYLFVNLACAVQTLLRTPNWRPRFKYYHWTLSFLGMSLCLALMFVSSWYYALVAMLIAGMIYKYIEYQGAEKEWGDGIRGLSLSAARYALLRLEEGPPHTKNWRPQLLVLLKLDEDLHVKYPRLLTFASQLKAGKGLTIVGSVIQGSFLESYGEAQAAEQTIKNMMDIEKVKGFCQVVVASKVREGLAHLIQSCGLGGMRHNSVVLGWPYGWRQSEDPRAWKTFIDTVRCTTAAHLALLVPKNIAFYPSNHERYLDGHIDVWWIVHDGGMLMLLPFLLRQHKVWKKCRMRIFTVAQMDDNSIQMKKDLAIFLYHLRLEAEVEVVEMHNSDISAYTYERTLMMEQRSQMLRQMRLTKTERDREAQLVKDRHSALRLESLYSDEEEESVAGADKIQMTWTRDKYMAEPWDPSHAPDNFRELVHIKPDQSNVRRMHTAVKLNEVIVTRSHDARLVLLNMPGPPKNSEGDENYMEFLEVLTEGLERVLLVRGGGREVITIYS
- stoichiometry N: ~2
